Positions count from the first letter of the chain named. Numbers in names are those of the source.
B1: Reference A+L11V+V89T+C-terminal alanine, N-terminal HIS6 tag (VHH)
VHH: EVQLVESGGGVVQPGGSLRLSCAASGFTFRSFGMSWVRQAPGKGPEWVSSISGSGSDTLYADSVKGRFTISRDNSKNTLYLQMNSLRPEDTATYYCTIGGSLSRSSQGTLVTVSS
B2: Reference A+L11V+V89T+S104T+C-terminal alanine, N-terminal HIS6 tag (VHH)
VHH: B1 VHH with S106T
B3: Reference A+L11V+V89T+T110K+C-terminal alanine, N-terminal HIS6 tag (VHH)
VHH: HHHHHHEVQLVESGGGVVQPGGSLRLSCAASGFTFRSFGMSWVRQAPGKGPEWVSSISGSGSDTLYADSVKGRFTISRDNSKNTLYLQMNSLRPEDTATYYCTIGGSLSRSSQGTLVKVSSA
B4: Reference A+L11V+R30T+V89L+C-terminal alanine, N-terminal HIS6 tag (VHH)
VHH: B1 VHH with R30T, T93L
B5: Reference A+L11V+S31D+V89L+C-terminal alanine, N-terminal HIS6 tag (VHH)
VHH: B1 VHH with S31D, T93L
B6: Reference A+L11V+V89S+C-terminal alanine, N-terminal HIS6 tag (VHH)
VHH: B1 VHH with T93S
B7: Reference A+L11V+V89L+R102D+C-terminal alanine, N-terminal HIS6 tag (VHH)
VHH: B1 VHH with T93L, R104D
B8: Reference A+L11V+V89L+S101H+C-terminal alanine, N-terminal HIS6 tag (VHH)
VHH: B1 VHH with T93L, S103H
B9: Reference A+L11V+V89L+S101E+C-terminal alanine, N-terminal HIS6 tag (VHH)
VHH: B1 VHH with T93L, S103E
B10: Reference A+L11V+V89L+S101G+C-terminal alanine, N-terminal HIS6 tag (VHH)
VHH: B1 VHH with T93L, S103G
B11: Reference A+L11V+V89L+S104A+C-terminal alanine, N-terminal HIS6 tag (VHH)
VHH: B1 VHH with T93L, S106A
B12: SEQ ID NO 10 (VHH)
VHH: B1 VHH with T93L
notes: also called R at position 30
B13: SEQ ID NO 127 (VHH)
VHH: B1 VHH with E1D, R30T, T93L, S106G
notes: also called T at position 30
B14: SEQ ID NO 129 (VHH)
VHH: B1 VHH with E1D, R30T, S106G
notes: also called T at position 30
B15: SEQ ID NO 145 (VHH)
VHH: B1 VHH with E1D, R30T, T93A, S106G
notes: also called T at position 30
B16: Reference A+L11V+V89N+C-terminal alanine, N-terminal HIS6 tag (VHH)
VHH: B1 VHH with T93N
B17: Reference A+L11V+V89N+T110K+C-terminal alanine, N-terminal HIS6 tag (VHH)
VHH: B3 VHH with T99N
B18: Reference A+L11V+V89S+T110K+C-terminal alanine, N-terminal HIS6 tag (VHH)
VHH: B3 VHH with T99S
B19: Reference A+L11V+V89A+C-terminal alanine, N-terminal HIS6 tag (VHH)
VHH: B1 VHH with T93A
B20: Reference A+L11V+V89A+T110K+C-terminal alanine, N-terminal HIS6 tag (VHH)
VHH: B3 VHH with T99A
B21: Reference A+L11V+V89L+S104G+C-terminal alanine, N-terminal HIS6 tag (VHH)
VHH: B1 VHH with T93L, S106G

target: T1, human serum albumin (human, UniProt P02768 25-609); assay: ProteOn SPR; Nanobody on immobilized human serum albumin; Langmuir simultaneous ka/kd fit
T1 construct: Amine-coupled to the chip (EDC/NHS); also called HSA
T1 sequence (P02768 25-609 limits assumed): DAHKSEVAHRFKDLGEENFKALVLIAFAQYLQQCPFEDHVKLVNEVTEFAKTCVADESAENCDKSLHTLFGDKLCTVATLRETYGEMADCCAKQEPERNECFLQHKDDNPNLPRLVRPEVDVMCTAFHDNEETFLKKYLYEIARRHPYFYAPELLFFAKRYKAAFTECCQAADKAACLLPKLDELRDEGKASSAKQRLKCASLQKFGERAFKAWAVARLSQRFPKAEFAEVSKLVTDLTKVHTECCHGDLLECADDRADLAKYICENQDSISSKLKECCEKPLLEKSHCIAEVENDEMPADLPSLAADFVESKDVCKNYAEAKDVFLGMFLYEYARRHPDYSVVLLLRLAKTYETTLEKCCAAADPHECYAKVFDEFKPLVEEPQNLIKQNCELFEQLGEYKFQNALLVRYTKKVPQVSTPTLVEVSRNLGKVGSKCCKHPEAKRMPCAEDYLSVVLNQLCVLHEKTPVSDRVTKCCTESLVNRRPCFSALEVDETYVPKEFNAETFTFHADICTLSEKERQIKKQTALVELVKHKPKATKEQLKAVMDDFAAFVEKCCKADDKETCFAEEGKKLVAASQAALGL
Procedure: (§1) PBS/Tween (phosphate buffered saline, pH7.4, 0.005% Tween20) was used as running buffer and the experiments were performed at 25° C. […] After immobilization, surfaces were deactivated with ethanolamine HCl (flow rate 30 μl/min). Nanobodies were injected for 2 minutes at 45 μl/min over the HSA surface to render a Nanobody capture level of approximately 200 RU. […] After each cycle (i.e. before a new Nanobody capture and blood sample injection step) the HSA surfaces were regenerated with a 2 minute injection of HCl (100 mM) at 45 μl/min. Sensorgram processing and data analysis was performed with ProteOn Manager 3.1.0 (Bio-Rad Laboratories, Inc.).
(§2) Also, for the serum albumin binders tested, a kinetic analysis was performed of the binding interaction with the immobilized serum albumin (Langmuir, simultaneous ka/kd model).

First: B1
Second: B2
The Kd of the first is 1.6-fold lower: 7.3 nM for the first, 12 nM for the second. The first binds more tightly here.

For B3, the Kd was 7.6 nM.

B1 and B2 are within 1.5-fold of each other in koff: 0.0023 s⁻¹ for the first, 0.0033 s⁻¹ for the second.

In the case of B3, the koff is reported as 0.0021 s⁻¹.

B1 and B2 are within 1.5-fold of each other in kon: 310000 M⁻¹ s⁻¹ for the first, 280000 M⁻¹ s⁻¹ for the second.

In the case of B3, the kon is reported as 280000 M⁻¹ s⁻¹.

target: T1, human serum albumin; assay: as above; remark: another data set of the same source
Procedure: as §1, §2

B4 and B5 are within 1.5-fold of each other in Kd: 22 nM for the first, 20 nM for the second.

For B6, the Kd was 11 nM.

B4 and B5 are within 1.5-fold of each other in koff: 0.0026 s⁻¹ for the first, 0.0032 s⁻¹ for the second.

B6 gave a koff of 0.0017 s⁻¹.

B4 and B5 are within 1.5-fold of each other in kon: 120000 M⁻¹ s⁻¹ for the first, 160000 M⁻¹ s⁻¹ for the second.

Binder B6 has a kon of 160000 M⁻¹ s⁻¹.

target: T1, human serum albumin; assay: as above; remark: another data set of the same source
Procedure: as §1, §2

First: B7
Second: B8
The Kd of the first is 3.4-fold higher: 82 nM for the first, 24 nM for the second.

Going from B7 to B8, the koff falls from 0.0051 s⁻¹ to 0.0026 s⁻¹ (2-fold).

First: B7
Second: B8
The kon of the first is 1.8-fold lower: 62000 M⁻¹ s⁻¹ for the first, 110000 M⁻¹ s⁻¹ for the second.

target: T1, human serum albumin; assay: as above; remark: another data set of the same source
Procedure: as §1, §2

Going from B9 to B10, the Kd falls from 30 nM to 16 nM (1.9-fold). The second binds more tightly here.

In the case of B11, the Kd is reported as 30 nM.

First: B9
Second: B10
The koff of the first is 2.6-fold higher: 0.0044 s⁻¹ for the first, 0.0017 s⁻¹ for the second.

Work on B11 yielded a koff of 0.0022 s⁻¹.

B9 and B10 are within 1.5-fold of each other in kon: 150000 M⁻¹ s⁻¹ for the first, 110000 M⁻¹ s⁻¹ for the second.

For B11, the kon was 72000 M⁻¹ s⁻¹.

target: rat serum albumin (rat, UniProt P02770 25-608); assay: ProteOn kinetic analysis
Sequence (P02770 25-608 limits assumed): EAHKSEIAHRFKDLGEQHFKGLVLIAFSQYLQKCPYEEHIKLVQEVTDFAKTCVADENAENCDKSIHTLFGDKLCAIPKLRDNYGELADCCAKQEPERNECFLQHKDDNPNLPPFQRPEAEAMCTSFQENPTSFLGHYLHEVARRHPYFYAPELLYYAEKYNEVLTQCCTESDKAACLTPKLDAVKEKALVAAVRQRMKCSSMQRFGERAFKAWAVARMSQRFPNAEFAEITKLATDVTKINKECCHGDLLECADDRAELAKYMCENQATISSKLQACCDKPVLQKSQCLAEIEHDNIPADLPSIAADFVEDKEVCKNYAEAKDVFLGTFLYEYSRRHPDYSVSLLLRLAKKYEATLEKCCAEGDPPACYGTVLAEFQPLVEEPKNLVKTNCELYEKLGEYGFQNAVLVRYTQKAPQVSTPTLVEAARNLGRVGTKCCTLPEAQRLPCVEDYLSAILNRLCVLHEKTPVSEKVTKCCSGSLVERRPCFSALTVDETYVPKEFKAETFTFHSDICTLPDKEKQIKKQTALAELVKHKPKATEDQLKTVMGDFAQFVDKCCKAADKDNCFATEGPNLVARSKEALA

Going from B12 to B13, the Kd rises from 180 nM to 490 nM (2.7-fold). The first binds more tightly here.

B14 and B15 are within 1.5-fold of each other in Kd: 490 nM for the first, 540 nM for the second.

First: B12
Second: B13
The koff of the first is 1.7-fold lower: 0.13 s⁻¹ for the first, 0.22 s⁻¹ for the second.

B14 and B15 are within 1.5-fold of each other in koff: 0.21 s⁻¹ for the first, 0.23 s⁻¹ for the second.

Going from B12 to B13, the kon falls from 710000 M⁻¹ s⁻¹ to 450000 M⁻¹ s⁻¹ (1.6-fold).

B14 and B15 are within 1.5-fold of each other in kon: 430000 M⁻¹ s⁻¹ for the first, 420000 M⁻¹ s⁻¹ for the second.

target: T1, human serum albumin; assay: ProteOn kinetic analysis

Compared with B12, B13 is 2.4-fold higher in Kd: 0.83 nM for the first, 2 nM for the second. The first binds more tightly here.

B14 and B15 are the same in Kd: 2.1 nM for the first, 2.1 nM for the second.

First: B12
Second: B13
The koff of the first is 1.7-fold lower: 0.00084 s⁻¹ for the first, 0.0014 s⁻¹ for the second.

B14 and B15 are within 1.5-fold of each other in koff: 0.0015 s⁻¹ for the first, 0.0014 s⁻¹ for the second.

B12 and B13 are within 1.5-fold of each other in kon: 1e+06 M⁻¹ s⁻¹ for the first, 730000 M⁻¹ s⁻¹ for the second.

B14 and B15 are within 1.5-fold of each other in kon: 710000 M⁻¹ s⁻¹ for the first, 690000 M⁻¹ s⁻¹ for the second.

target: cyno serum albumin (cyno, UniProt A2V9Z4 25-608); assay: ProteOn kinetic analysis
Sequence (A2V9Z4 25-608 limits assumed): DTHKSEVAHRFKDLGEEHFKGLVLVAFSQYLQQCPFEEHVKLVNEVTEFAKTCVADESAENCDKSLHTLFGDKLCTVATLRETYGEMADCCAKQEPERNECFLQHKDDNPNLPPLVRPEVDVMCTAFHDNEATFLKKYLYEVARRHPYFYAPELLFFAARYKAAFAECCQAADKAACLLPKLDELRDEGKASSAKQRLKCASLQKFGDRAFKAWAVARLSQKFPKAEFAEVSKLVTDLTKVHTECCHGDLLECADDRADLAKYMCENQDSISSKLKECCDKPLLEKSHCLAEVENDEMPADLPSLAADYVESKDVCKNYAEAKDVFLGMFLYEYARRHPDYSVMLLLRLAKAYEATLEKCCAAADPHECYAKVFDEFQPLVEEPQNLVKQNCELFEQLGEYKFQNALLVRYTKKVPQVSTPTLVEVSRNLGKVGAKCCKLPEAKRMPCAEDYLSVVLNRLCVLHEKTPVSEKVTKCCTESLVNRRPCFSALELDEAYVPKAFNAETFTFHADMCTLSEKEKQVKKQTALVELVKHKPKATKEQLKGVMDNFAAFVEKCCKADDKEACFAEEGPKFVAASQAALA

Compared with B12, B13 is 2.4-fold higher in Kd: 0.89 nM for the first, 2.1 nM for the second. The first binds more tightly here.

B14 and B15 are within 1.5-fold of each other in Kd: 2.4 nM for the first, 2.3 nM for the second.

Going from B12 to B13, the koff rises from 0.00081 s⁻¹ to 0.0014 s⁻¹ (1.7-fold).

B14 and B15 are the same in koff: 0.0015 s⁻¹ for the first, 0.0015 s⁻¹ for the second.

B12 and B13 are within 1.5-fold of each other in kon: 910000 M⁻¹ s⁻¹ for the first, 690000 M⁻¹ s⁻¹ for the second.

B14 and B15 are the same in kon: 640000 M⁻¹ s⁻¹ for the first, 640000 M⁻¹ s⁻¹ for the second.

target: mouse serum albumin (mouse, UniProt P07724 25-608); assay: ProteOn kinetic analysis

Going from B12 to B13, the Kd rises from 6.8 nM to 21 nM (3.1-fold).

B14 and B15 are the same in Kd: 27 nM for the first, 27 nM for the second.

Compared with B12, B13 is 2.3-fold higher in koff: 0.0073 s⁻¹ for the first, 0.017 s⁻¹ for the second.

B14 and B15 are within 1.5-fold of each other in koff: 0.021 s⁻¹ for the first, 0.02 s⁻¹ for the second.

B12 and B13 are within 1.5-fold of each other in kon: 1.1e+06 M⁻¹ s⁻¹ for the first, 820000 M⁻¹ s⁻¹ for the second.

B14 and B15 are within 1.5-fold of each other in kon: 770000 M⁻¹ s⁻¹ for the first, 750000 M⁻¹ s⁻¹ for the second.

target: guinea pig serum albumin (guinea pig); assay: ProteOn kinetic analysis

Going from B12 to B13, the Kd rises from 5.1 nM to 8.6 nM (1.7-fold).

B14 and B15 are the same in Kd: 13 nM for the first, 13 nM for the second.

B12 and B13 are within 1.5-fold of each other in koff: 0.0063 s⁻¹ for the first, 0.0075 s⁻¹ for the second.

B14 and B15 are within 1.5-fold of each other in koff: 0.0098 s⁻¹ for the first, 0.01 s⁻¹ for the second.

B12 and B13 are within 1.5-fold of each other in kon: 1.2e+06 M⁻¹ s⁻¹ for the first, 870000 M⁻¹ s⁻¹ for the second.

B14 and B15 are the same in kon: 790000 M⁻¹ s⁻¹ for the first, 790000 M⁻¹ s⁻¹ for the second.

target: T1, human serum albumin; assay: ProteOn SPR; Nanobody on immobilized human serum albumin; Langmuir simultaneous ka/kd fit; remark: another data set of the same source
Procedure: as §1, §2

Compared with B16, B17 is 2.4-fold higher in Kd: 3.1 nM for the first, 7.3 nM for the second.

B18 showed a Kd of 7.2 nM.

Going from B16 to B17, the koff falls from 0.0036 s⁻¹ to 0.0016 s⁻¹ (2.2-fold).

Work on B18 yielded a koff of 0.0015 s⁻¹.

Compared with B16, B17 is 5.5-fold lower in kon: 1.2e+06 M⁻¹ s⁻¹ for the first, 220000 M⁻¹ s⁻¹ for the second.

Binder B18 has a kon of 200000 M⁻¹ s⁻¹.

target: T1, human serum albumin; assay: as above; remark: another data set of the same source
Procedure: as §1, §2

B19 and B20 are within 1.5-fold of each other in Kd: 7.3 nM for the first, 6.5 nM for the second.

Binder B21 has a Kd of 8.3 nM.

B19 and B20 are within 1.5-fold of each other in koff: 0.0019 s⁻¹ for the first, 0.0018 s⁻¹ for the second.

With B21 the koff was 0.0022 s⁻¹.

B19 and B20 are within 1.5-fold of each other in kon: 260000 M⁻¹ s⁻¹ for the first, 270000 M⁻¹ s⁻¹ for the second.

In the case of B21, the kon is reported as 260000 M⁻¹ s⁻¹.

— patent publication US20220380445A1 (Ablynx, published 2022)
